Target: Human collagen Type I (acid soluble) (human) (UniProt P02452)
Test: cell-based or functional assay

Sequence of UniProt P02452 (P02452 162-1218 limits assumed, chain 1 of 2): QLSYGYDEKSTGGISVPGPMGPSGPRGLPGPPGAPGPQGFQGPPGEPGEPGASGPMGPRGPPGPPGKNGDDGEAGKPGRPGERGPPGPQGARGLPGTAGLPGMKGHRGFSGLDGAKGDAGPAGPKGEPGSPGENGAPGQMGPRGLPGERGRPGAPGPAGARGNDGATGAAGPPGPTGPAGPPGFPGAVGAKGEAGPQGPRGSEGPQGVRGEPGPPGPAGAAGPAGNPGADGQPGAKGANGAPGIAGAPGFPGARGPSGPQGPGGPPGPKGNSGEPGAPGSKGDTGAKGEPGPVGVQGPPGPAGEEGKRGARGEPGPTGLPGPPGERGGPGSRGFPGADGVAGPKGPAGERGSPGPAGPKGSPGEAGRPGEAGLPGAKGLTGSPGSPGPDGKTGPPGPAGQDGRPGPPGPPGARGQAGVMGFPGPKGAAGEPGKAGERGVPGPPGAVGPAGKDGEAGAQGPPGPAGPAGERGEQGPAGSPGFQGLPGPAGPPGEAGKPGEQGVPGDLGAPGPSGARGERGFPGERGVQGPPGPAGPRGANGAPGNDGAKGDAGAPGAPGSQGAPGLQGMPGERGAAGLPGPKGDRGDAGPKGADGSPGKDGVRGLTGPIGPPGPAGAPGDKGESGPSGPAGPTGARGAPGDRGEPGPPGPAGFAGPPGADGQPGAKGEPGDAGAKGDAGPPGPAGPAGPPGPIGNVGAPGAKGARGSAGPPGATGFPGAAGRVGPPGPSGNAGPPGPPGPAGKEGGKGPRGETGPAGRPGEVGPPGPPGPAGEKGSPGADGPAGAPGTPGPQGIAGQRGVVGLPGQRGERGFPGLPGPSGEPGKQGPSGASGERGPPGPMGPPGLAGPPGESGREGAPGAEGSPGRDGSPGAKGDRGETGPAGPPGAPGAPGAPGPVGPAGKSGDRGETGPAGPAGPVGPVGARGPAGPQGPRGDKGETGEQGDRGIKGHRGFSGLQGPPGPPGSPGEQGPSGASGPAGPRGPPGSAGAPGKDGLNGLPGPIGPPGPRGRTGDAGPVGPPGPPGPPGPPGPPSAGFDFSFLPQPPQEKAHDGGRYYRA
Sequence of UniProt P02452 (P08123 80-1119 limits assumed, chain 2 of 2, further chain): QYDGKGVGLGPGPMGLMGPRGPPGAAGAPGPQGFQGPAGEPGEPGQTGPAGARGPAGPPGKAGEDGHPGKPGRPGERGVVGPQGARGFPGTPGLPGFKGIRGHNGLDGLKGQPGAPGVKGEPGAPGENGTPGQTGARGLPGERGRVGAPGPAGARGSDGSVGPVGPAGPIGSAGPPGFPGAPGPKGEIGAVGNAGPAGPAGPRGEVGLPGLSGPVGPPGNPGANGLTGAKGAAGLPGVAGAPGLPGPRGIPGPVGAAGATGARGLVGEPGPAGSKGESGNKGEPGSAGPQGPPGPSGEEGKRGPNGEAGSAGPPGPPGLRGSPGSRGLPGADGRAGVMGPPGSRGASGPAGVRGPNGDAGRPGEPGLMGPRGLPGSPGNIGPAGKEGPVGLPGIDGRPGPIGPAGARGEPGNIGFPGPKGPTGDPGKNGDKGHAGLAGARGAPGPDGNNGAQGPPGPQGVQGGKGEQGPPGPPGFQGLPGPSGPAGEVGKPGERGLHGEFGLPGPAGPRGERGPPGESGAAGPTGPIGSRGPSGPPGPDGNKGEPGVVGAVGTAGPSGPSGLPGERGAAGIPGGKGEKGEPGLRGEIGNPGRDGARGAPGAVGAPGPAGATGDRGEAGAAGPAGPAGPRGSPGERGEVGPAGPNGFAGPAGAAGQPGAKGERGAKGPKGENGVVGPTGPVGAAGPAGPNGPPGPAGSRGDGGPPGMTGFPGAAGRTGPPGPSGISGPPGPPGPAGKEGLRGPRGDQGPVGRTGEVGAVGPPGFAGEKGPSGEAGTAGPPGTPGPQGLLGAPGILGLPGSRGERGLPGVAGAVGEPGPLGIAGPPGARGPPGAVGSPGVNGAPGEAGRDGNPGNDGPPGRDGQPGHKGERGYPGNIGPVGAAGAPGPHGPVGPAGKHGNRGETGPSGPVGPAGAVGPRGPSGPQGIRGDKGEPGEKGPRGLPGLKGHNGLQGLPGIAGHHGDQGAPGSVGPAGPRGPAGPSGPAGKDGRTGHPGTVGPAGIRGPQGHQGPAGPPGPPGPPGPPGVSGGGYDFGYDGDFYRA

B1: human decorin core protein (HDCP) (protein)
chain: VEASGIGPEVPDDRDFEPSLGPVCPFRCQCHLRVVQCSDLGLDKVPKDLPPDTTLLDLQNNKITEIKDGDFKNLKNLHALILVNNKISKVSPGAFTPLVKLERLYLSKNQLKELPEKMPKTLQELRAHENEITKVRKVTFNGLNQMIVIELGTNPLKSSGIENGAFQGMKKLSYIRIADTNITSIPQGLPPSLTELHLDGNKISRVDAASLKGLNNLAKLGLSFNSISAVDNGSLANTPHLRELHLDNNKLTRVPGGLAEHKYIQVVYLHNNNISVVGSSDFCPPGHNTKKASYSGVSLFSNPVQYWEIQPSTFRCVYVRSAIQLGNYK
modifications: possible initiator Met
Collagen Protection Assay, collagen band density, C + D + Z, 0 min (optical density/mm^2): 10.4 | Collagen Protection Assay, collagen band density, C + D + Z, 30 min (optical density/mm^2): 9.37 | Collagen Protection Assay, collagen band density, C + D + Z, 60 min (optical density/mm^2): 5.89 | Collagen Protection Assay, collagen band density, C + D + Z, 90 min (optical density/mm^2): 1.67 | Collagen Type I Degradation Rate (%), C + D + Z, 30 min: 9.49% | Collagen Type I Degradation Rate (%), C + D + Z, 60 min: 37.1% | Collagen Type I Degradation Rate (%), C + D + Z, 90 min: 71.6%

Source: patent publication US20030124152A1
